B1: EEHEE_rd4_0003 (parent)
chain: KKVTINGVEIKFNNPEEAVKFALELAKRLNLRIEFHGDQIKIE

Variants of: B1
Assay: folding stability dG (cDNA display proteolysis); higher = more stable
Settings: PBS, room temperature

Variant	folding stability dG [kcal/mol]
KKYTINGVEIKFNNPEEAVKFALELAKRLNLRIEFHGDQIKIE	2.26
KKVTINGTEIKFNNPEEAVKFALELAKRLNLRIEFHGDQIKIE	2.24
KKVTINGDEIKFNNPEEAVKFALELAKRLNLRIEFHGDQIKIE	1.65
KKVTINGREIKFNNPEEAVKFALELAKRLNLRIEFHGDQIKIE	2.56
KKVTINGHEIKFNNPEEAVKFALELAKRLNLRIEFHGDQIKIE	2.53
KKVTINGNEIKFNNPEEAVKFALELAKRLNLRIEFHGDQIKIE	2
KKVTINGVEIKFNNPEEAVKFALELAKRLNLRIEFHGDQIKNE	1.74
KKVTINGVEIKFNNPEEAVKFALELAKRLNLRIEFHGDQIKVE	2.31
KKVTINGVEIKFNNPEEAVKFALELAKRLNLRIEFHGDQIKHE	1.63
KKVTINGVEIKFNNPEEAVKFALELAKRLNLRIEFHGDQIKRE	1.44
KKVTINGVGIKFNNPEEAVKFALELAKRLNLRIEFHGDQIKIE	2.12
KKVTINGVEIKFNNPEEAVKFALELAKRLNLRIEFEGDQIKIE	2.58
KKVTINGVEIKFNNPEEAVKFALELAKRLNLRIEFTGDQIKIE	2.7
KKVTINGVEIKFNNPEEAVKFALELAKRLNLRIEFYGDQIKIE	2.75
KKVTINGVEIKFNNPEEAVKFALELAPRLNLRIEFHGDQIKIE	1.37
KKVTINGVEIKFNNPEEAVKFALELAGRLNLRIEFHGDQIKIE	2.39
KKVTINGVEIKFNNPEEAVKFALELAKRLNLRIEHHGDQIKIE	1.88
KKVTINGVEIKFNNPEEAVKFALELAKRLNLRIEPHGDQIKIE	1.31
KKVTINGVEIKFNNPEEAVKFALELAKRLNLRIEGHGDQIKIE	1.41
KKVTINGVEIKFNNPEEAVKFALELAKRLNLRIEKHGDQIKIE	1.78
KKVTINGVEIKFNNPEENVKFALELAKRLNLRIEFHGDQIKIE	1.75
KKVTINGVEIKFNNPEEIVKFALELAKRLNLRIEFHGDQIKIE	2.45
KMVTINGVEIKFNNPEEAVKFALELAKRLNLRIEFHGDQIKIE	2.83
KEVTINGVEIKFNNPEEAVKFALELAKRLNLRIEFHGDQIKIE	2.06

Variant	folding stability dG [kcal/mol]
KYVTINGVEIKFNNPEEAVKFALELAKRLNLRIEFHGDQIKIE	2.82
KCVTINGVEIKFNNPEEAVKFALELAKRLNLRIEFHGDQIKIE	3.4
KKVTINGVEIKFNNPEEAVKFALELAKRINLRIEFHGDQIKIE	1.9
KKVTINGVEIKFNNPEEAVKFALELAKRDNLRIEFHGDQIKIE	1.29
KKVTINGVEIKFNNPEEAVKFALELAKRSNLRIEFHGDQIKIE	1.55
KKVTINGVEIKFNNPEEAVKFALELAKRLDLRIEFHGDQIKIE	1.9
KKVTINGVEIKFNNPEEAVKFALELAKRLKLRIEFHGDQIKIE	2.55
KKVTINGVEIKFNNPEEAVKFALELAKRLELRIEFHGDQIKIE	1.86
KKVTINGVEIKFNNPEEAVKFALELAKRLQLRIEFHGDQIKIE	2.38
KKVTINGVEIKFNNPEEAVKFALELAKRLCLRIEFHGDQIKIE	3.46
KKVTINGVEIKFNNPEEAVKFALELAKRLVLRIEFHGDQIKIE	2.29
KKVTINGVEIKSNNPEEAVKFALELAKRLNLRIEFHGDQIKIE	1.57
KKVTINGVEIKTNNPEEAVKFALELAKRLNLRIEFHGDQIKIE	1.7
KKVTINGVEIKFNNPEEAVKEALELAKRLNLRIEFHGDQIKIE	1.35
KKVTINGVEIKFNNPEEAVKSALELAKRLNLRIEFHGDQIKIE	1.47
KKVTINGVEIKFNNPEEAVKFALELAKRLNLRIEFHGDQGKIE	1.37
KKVTINGVEIKFNNPEEAVKFALELAKRLNLRIEFHGDQLKIE	2.1
KKVTINGVEIEFNNPEEAVKFALELAKRLNLRIEFHGDQIKIE	2.77
KKVTINGVEIMFNNPEEAVKFALELAKRLNLRIEFHGDQIKIE	2.99
KKVTINGVEIGFNNPEEAVKFALELAKRLNLRIEFHGDQIKIE	2.28
KKVAINGVEIKFNNPEEAVKFALELAKRLNLRIEFHGDQIKIE	2.02
KKVHINGVEIKFNNPEEAVKFALELAKRLNLRIEFHGDQIKIE	2.26
KKVNINGVEIKFNNPEEAVKFALELAKRLNLRIEFHGDQIKIE	2.21
KKVTINGVEIKFNNPEEAVKFCLELAKRLNLRIEFHGDQIKIE	2.79

Variant	folding stability dG [kcal/mol]
KKVTINGVEIKFNNPEEAVKFAEELAKRLNLRIEFHGDQIKIE	2.12
KKVTINGVEIKFNNPEEAVKFAGELAKRLNLRIEFHGDQIKIE	1.43
KKVTINGVEIKFNNPEEAVKFACELAKRLNLRIEFHGDQIKIE	3.18
KKVTIHGVEIKFNNPEEAVKFALELAKRLNLRIEFHGDQIKIE	2.45
KKVTIQGVEIKFNNPEEAVKFALELAKRLNLRIEFHGDQIKIE	2.14
KKVTINGVEIKFNNPEEAVKFALELAKRLNLRIEFHGDQIYIE	2.94
KKVTINGVEIKFNNPEEAVKFALELAKRLNLRIEFHGDQIVIE	3
KKVTINGVEIKFNNPEEAVKFALELAKRLNLRIEFHGDQINIE	2.52
KKVTINGVEIKFNNPEEAVKFALELAKRLNLRIEFHGDQIPIE	1.3
KKVTINGVEIKFNNPEEAVKFALELAKRLNLRIEFHGDQIMIE	2.71
KKVTINGVEIKFNNDEEAVKFALELAKRLNLRIEFHGDQIKIE	2.46
KKVTINGVEIKFNNHEEAVKFALELAKRLNLRIEFHGDQIKIE	2.84
KKVTINGVEIKFNNWEEAVKFALELAKRLNLRIEFHGDQIKIE	3.67
KKVTINGVEIKFNNPEEAVKFALELAKRLNLRIEFHGDQIKIV	3.28
KKVTINGVEIKFNNPEEAVKFALELAKRLNLRIEFHGDQIKIG	2.8
KKVTINGVEIKFNNPEEAVKFALELAKRLNLRIEFHGDQIKIA	2.59
KKVTINGVEIKFNNPEEAVKFALELAKRLNLRIEFHGDQIKII	3.32
KKVTINGVEIKFNNPEEAVKFALELAKRLNLRIEFHGDHIKIE	2.91
KKVTINGVEIKFNNPEEAVKFALELAKRLNLRIEFHGDPIKIE	1.77
KKVTINGVEIKFNNPEEAVKFALELAKRLNLRIEFHGDTIKIE	3.22
KKVTINGVEIKFNNPEEAVKFALELAKRLNLRIEFHGDNIKIE	2.82
KKVTINGVEIKFKNPEEAVKFALELAKRLNLRIEFHGDQIKIE	2.8
KKVTINGVEIKFANPEEAVKFALELAKRLNLRIEFHGDQIKIE	2.8
KKVTINGVEQKFNNPEEAVKFALELAKRLNLRIEFHGDQIKIE	1.65

Variant	folding stability dG [kcal/mol]
KKVTINGVEFKFNNPEEAVKFALELAKRLNLRIEFHGDQIKIE	2.89
KKVTINGVESKFNNPEEAVKFALELAKRLNLRIEFHGDQIKIE	1.6
KKVTINGVEIKFNNPEVAVKFALELAKRLNLRIEFHGDQIKIE	2.25
KKVTINGVEIKFNNPEDAVKFALELAKRLNLRIEFHGDQIKIE	2.68
KKVTINGVEIKFNNPEEAEKFALELAKRLNLRIEFHGDQIKIE	2.04
KKVTINGVEIKFNNPEEAQKFALELAKRLNLRIEFHGDQIKIE	2.06
KKVTINGVEIKFNNPEEAVKFALELAKRLNLRIEFHNDQIKIE	2.41
KKVTINGVEIKFNNPEEAVKFALELAKRLNLRIEFHTDQIKIE	2.26
KKVTINGVEIKFNNPEEAVKFALELAKRLNLRIEFHVDQIKIE	2.38
KKVTINGVEIKFNNPEEAVKFALELAKRLNLRIHFHGDQIKIE	2.42
KKVTINGVEIKFNNPEEAVKFALELAKRLNLRIPFHGDQIKIE	1.48
KKVTINGVEIKFNNPEEAVKFALELKKRLNLRIEFHGDQIKIE	1.66
KKVTINGVEIKFNNPEEAVKFALELPKRLNLRIEFHGDQIKIE	1.19
KKVTINGVEIKFNNPEEAVKFALELGKRLNLRIEFHGDQIKIE	1.91
KKVTINGVEIKFNNPEEAVKFALELTKRLNLRIEFHGDQIKIE	1.92
KKVTINQVEIKFNNPEEAVKFALELAKRLNLRIEFHGDQIKIE	1.96
KKVTINKVEIKFNNPEEAVKFALELAKRLNLRIEFHGDQIKIE	2.09
KKVTINRVEIKFNNPEEAVKFALELAKRLNLRIEFHGDQIKIE	1.87
KKVTINGVEIKFNNPEEAVTFALELAKRLNLRIEFHGDQIKIE	2.24
KKVTINGVEIKFNNPEEAVRFALELAKRLNLRIEFHGDQIKIE	2.81
KKVTINGVEIKFNNPEEAVAFALELAKRLNLRIEFHGDQIKIE	2.64
KKVTINGVEIKFNNPEEAVCFALELAKRLNLRIEFHGDQIKIE	3.78
KKVTINGVEIKFNNPREAVKFALELAKRLNLRIEFHGDQIKIE	2.6
KKVTINGVEIKFNNPVEAVKFALELAKRLNLRIEFHGDQIKIE	2.53

Variant	folding stability dG [kcal/mol]
KKVTINGVEIKFNNPAEAVKFALELAKRLNLRIEFHGDQIKIE	2.61
KKVTINGVEIKFNNPMEAVKFALELAKRLNLRIEFHGDQIKIE	2.66
KKVTINGVEIKFNNPEEAVKFALELAKRLNLYIEFHGDQIKIE	2.15
KKVTINGVEIKFNNPEEAVKFALMLAKRLNLRIEFHGDQIKIE	2.73
KKVTINGVEIKFNNPEEAVKFALRLAKRLNLRIEFHGDQIKIE	2.55
KKVTINGVEIKFNNPEEAVKFALTLAKRLNLRIEFHGDQIKIE	2.43
KKVTINGVEIKFNNPEEAVKFALELAKRLNLRKEFHGDQIKIE	0.882
KKVTINGVEIKFNNPEEAVKFALELAKRLNLRWEFHGDQIKIE	2.08
KKVTINGVEIKFNNPEEAVKFALELAKRLNLRPEFHGDQIKIE	1.29
KKVTNNGVEIKFNNPEEAVKFALELAKRLNLRIEFHGDQIKIE	1.47
KKVTSNGVEIKFNNPEEAVKFALELAKRLNLRIEFHGDQIKIE	1.46
KKVTFNGVEIKFNNPEEAVKFALELAKRLNLRIEFHGDQIKIE	2.8
KKVTINGVEIKFNKPEEAVKFALELAKRLNLRIEFHGDQIKIE	2.35
KKVTINGVEIKFNDPEEAVKFALELAKRLNLRIEFHGDQIKIE	2.56
KKVTINGVEIKFNHPEEAVKFALELAKRLNLRIEFHGDQIKIE	2.37
KKVTINGVEIKFNNPEEAVKFALELAKRLNIRIEFHGDQIKIE	2.5
KKVTINGVEIKFNNPEEAVKFALELAKRLNYRIEFHGDQIKIE	2.14
KKVTINGVEIKFNNPEEAVKFALELAKRLNLRIEFHGIQIKIE	2.49
KKVTINGVEIKFNNPEEAVKFALELAKRLNLRIEFHGWQIKIE	2.73
KKVTINGVEIKFNNPEEAVKFALEMAKRLNLRIEFHGDQIKIE	2.46
KKVTINGVEIKFNNPEEAVKFALERAKRLNLRIEFHGDQIKIE	0.955
KKVTINGVEIKFNNPEEAVKFALEYAKRLNLRIEFHGDQIKIE	2.72
